These results are taken from patent US12428627B2, “Mutant p-hydroxyphenylpyruvate dioxygenase, and coding nucleic acid and use thereof” (Qingdao Kingagroot Chemical Compound Co., Ltd., priority 2018, dated 2025).

In test [1] the test system is Huaidao No. 5 rice seedlings. The test is described as follows: Gene-edited rice seedlings (base editing / homologous replacement of HPPD gene) on medium containing tembotrione. The format is in vivo. As to conditions: medium containing 0.4 μM tembotrione. As for the experimental part:
The calli of Huaidao No. 5 (at least 3000 callis) were infected according to the aforesaid method for infecting rice callis with Agrobacterium. After being infected with Agrobacterium, the infected calli were transferred to a 50 mg/L hyg screening medium for screening culture. After three rounds (15 days×3) of screening, the blond calli with good growth state were picked out to differentiate in a differentiation medium, and 0.2 μM tembotrione was added during the differentiation process for screening. After for 3-4 weeks, about 1,500 seedlings with around 1 cm were obtained. As to the about 1,500 differentiated seedlings, the vast majority of which had been bleached, and only 4 seedlings remained normal green. The 4 seedlings were transplanted to a rooting medium containing 0.4 μM tembotrione and cultivated for 2 weeks, wherein two seedlings had been bleached, while the other two seedlings remained green (FIG. 14A). A small number of leaves were used to extract genomic DNA by CTAB method. PCR was carried out by using the primers oshppd54F: TTCCACCACGTCGAGCTC and Oshppd356R: […]. The amplified product was detected by 1% agarose electrophoresis and sequenced by Sanger sequencing method. […]

A further test concerns transgenic rice. The test is described as follows: Herbicide resistance of transgenic rice (T0, T1 generation) sprayed with shuangzuocaotong. The test is classed as in vivo. The text has this: • 1. Construction of overexpression vector • 1) Primers: primers were designed according to the selected restriction sites and the nucleotide sequence of the gene itself to amplify the three-site mutant HPPD (H141R/G342D/D370N) (OsHPPD3M). The designed primers were synthesized by Beijing Qingke Biotechnology Co., Ltd.: HPPD-F, […] ATGCCTCCCACT CCCACCC, HPPD-R, […] GGC. • 2) PCR amplification: the gene of interest was amplified by using the synthesized primer and Q5 DNA polymerase (NEB, New England Biolabs, Boston, USA). The amplified product was assayed by agarose gel electrophoresis, and the product was recovered according to operational instructions of the TIANquick Midi Purification kit. After the completion of the recovery, the concentration of extracted DNA was determined by Nanodrop. • 3) Construction of a rice overexpression vector: the rice overexpression vector pCAMBIA1301-OsHPPD3M was constructed with the recovered HPPD fragments and plasmid pCAMBIA1301 digested by KpnI and HindIII by using the HB-in Fusions™ seamless cloning kit of HanBio Biotechnology Co., Ltd., (Shanghai), and then transformed into the competent E. coli DH5α to obtain a positive clone; the positive clone was transformed into Agrobacterium after sequencing and restriction endonuclease digestion. • 2. […]

B1: H141R/G342D/D370N: three-site mutant rice HPPD (OsHPPD3M) (protein, listed as Oryza sativa)
chain: MPPTPTPTATTGAVSAAAAAGENAGFRLVGHRRFVRANPRSDRFQALAFHHVELWCADAASAAGRFAFALGAPLAARSDLSTGNSAHASLLLRSASVAFLFTAPYGGDHGVGADAATTASIPSFSPGAARRFAADHGLAVRAVALRVADAADAFRASVAAGARPAFQPADLGGGFGLAEVELYGDVVLRFVSHPDGADAPFLPGFEGVSNPGAVDYGLRRFDHVVGNVPELAPVAAYISGFTGFHEFAEFTAEDVGTAESGLNSVVLANNAETVLLPLNEPVHGTKRRSQIQTYLDHHGGPGVQHIALASDDVLGTLREMRARSAMGGFEFLAPPPPNYYDDVRRRAGDVLSEEQINECQELGVLVDRDNQGVLLQIFTKPVGDRPTFFLEMIQRIGCMEKDESGQEYQKGGCGGFGKGNFSELFKSIEEYEKSLEAKQAPTVQGS
modifications: The amino acid sequence of Wild-Type rice HPPD protein (OsHPPD _WT)
On to B1, for which, in test [1], the “state of successfully edited seedlings” value is recorded as “remain green”. Further, the “shuangzuocaotong rate tolerated, T0 generation plants” value with transgenic rice (T0 plants expressing the mutant, spraying) is reported as 8-16 grams active ingredient per mu. In the test with transgenic rice (T1 plants expressing the mutant, spraying), the “shuangzuocaotong rate tolerated, T1 generation plants” value is 32-64 grams active ingredient per mu. For the same molecule, in the test with transgenic rice (overexpression, field rate of shuangzuocaotong 4 g a.i./mu), the “resistance multiple of transgenic rice to HPPD-inhibiting herbicide” value is on record as “at least 4”.
